Results as given in paper PMC12743511, “HSD17β11 regulates PLIN5-ATGL mediated lipolysis, but not hepatic lipid metabolism in mice” (Journal of Lipid Research, 2025).

Target: T1, PLIN5-CFP (perilipin 5 fused to CFP) (UniProt Q00G26 1-463)
T1 construct: perilipin 5 (PLIN5); FRET donor; source: transiently transfected (Lipofectamine 3000), in live cells
T1 sequence (looked up): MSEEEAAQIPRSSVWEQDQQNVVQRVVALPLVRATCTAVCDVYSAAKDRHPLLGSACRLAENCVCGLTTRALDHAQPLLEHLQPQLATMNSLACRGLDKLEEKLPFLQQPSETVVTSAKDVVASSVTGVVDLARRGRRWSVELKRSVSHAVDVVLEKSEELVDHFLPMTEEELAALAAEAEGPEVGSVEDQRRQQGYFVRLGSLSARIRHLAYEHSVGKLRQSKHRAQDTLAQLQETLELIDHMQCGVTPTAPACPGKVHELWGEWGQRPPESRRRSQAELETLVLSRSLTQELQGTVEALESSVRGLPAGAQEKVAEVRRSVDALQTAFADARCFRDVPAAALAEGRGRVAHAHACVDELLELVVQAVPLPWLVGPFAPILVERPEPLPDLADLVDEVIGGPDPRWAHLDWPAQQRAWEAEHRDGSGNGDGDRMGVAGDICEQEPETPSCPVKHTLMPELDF
Assay: FRET or BRET; FLIM-FRET with phasor analysis in live transfected cells, CFP donor and YFP acceptor, 37°C, 5% CO2; basal and forskolin (PKA) stimulated; ATGL-CFP with PLIN5-YFP in WT and HSD^KO cells; read-out FRET ratio (pixels with FRET / pixels without)
Details: partners not purified

fold increase in FRET ratio over donor alone: 2.5 fold
B1: HSD17β11-YFP (hydroxysteroid 17β dehydrogenase 11 fused to YFP) (natural protein, UniProt Q8NBQ5 1-300, looked up)
chain: MKFLLDILLLLPLLIVCSLESFVKLFIPKRRKSVTGEIVLITGAGHGIGRLTAYEFAKLKSKLVLWDINKHGLEETAAKCKGLGAKVHTFVVDCSNREDIYSSAKKVKAEIGDVSILVNNAGVVYTSDLFATQDPQIEKTFEVNVLAHFWTTKAFLPAMTKNNHGHIVTVASAAGHVSVPFLLAYCSSKFAAVGFHKTLTDELAALQITGVKTTCLCPNFVNTGFIKNPSTSLGPTLEPEEVVNRLMHGILTEQKMIFIPSSIAFLTTLERILPERFLAVLKRKISVKFDAVIGYKMKAQ
notes: hydroxysteroid 17β dehydrogenase 11 (HSD17β11), wild type; FRET acceptor; also called HSD^WT-YFP; source: transiently transfected (Lipofectamine 3000), in live cells
